Assay results taken from patent US20090215878.

Test system: ZFP-TF 8982-KRAB
Assay: cell_activity
Conditions: rat DRG neurons, lentiviral; Nav1.8 mRNA vs GFP control; which of SEQ 2 (GAA) or SEQ 3 (CAA) is the rat site is not stated

## GAAGAAGAATGAGAAGATG (double strand) [Nav1.8 target site (GAA variant)]
  activity (fold repression): 10
